# Measured values as given in patent US7057015B1, “Hormone receptor functional dimers and methods of their use” (The Salk Institute for Biological Studies, priority 1999, dated 2006).
# T1: Drosophila melanogaster ecdysone receptor (monomeric) (Drosophila melanogaster, UniProt P34021 1-878)
# T1 sequence (looked up): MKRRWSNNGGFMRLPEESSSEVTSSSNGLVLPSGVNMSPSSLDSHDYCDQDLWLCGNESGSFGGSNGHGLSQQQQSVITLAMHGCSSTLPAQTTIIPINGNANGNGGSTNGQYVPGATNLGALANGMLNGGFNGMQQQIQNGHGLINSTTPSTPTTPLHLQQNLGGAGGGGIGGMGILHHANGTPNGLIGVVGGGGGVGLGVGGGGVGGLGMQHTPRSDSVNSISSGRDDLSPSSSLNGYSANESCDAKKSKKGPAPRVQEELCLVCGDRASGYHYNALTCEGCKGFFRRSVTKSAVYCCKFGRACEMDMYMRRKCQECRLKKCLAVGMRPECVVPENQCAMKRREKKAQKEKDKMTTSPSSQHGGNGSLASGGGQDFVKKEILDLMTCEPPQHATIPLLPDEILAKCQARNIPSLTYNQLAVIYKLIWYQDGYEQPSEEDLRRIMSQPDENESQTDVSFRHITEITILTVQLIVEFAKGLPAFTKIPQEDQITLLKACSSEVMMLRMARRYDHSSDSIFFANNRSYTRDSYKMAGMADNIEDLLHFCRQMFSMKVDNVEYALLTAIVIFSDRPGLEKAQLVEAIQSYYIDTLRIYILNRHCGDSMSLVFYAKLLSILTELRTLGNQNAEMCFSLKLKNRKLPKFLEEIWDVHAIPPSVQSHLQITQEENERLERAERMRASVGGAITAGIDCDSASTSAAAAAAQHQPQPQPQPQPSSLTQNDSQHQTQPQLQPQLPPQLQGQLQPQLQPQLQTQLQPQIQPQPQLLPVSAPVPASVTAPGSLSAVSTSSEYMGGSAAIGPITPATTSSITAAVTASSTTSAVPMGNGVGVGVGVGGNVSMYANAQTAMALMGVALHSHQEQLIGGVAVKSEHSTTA
# Legend:
# [1] = system: mammals and other non-insect species; conditions: in vivo; cited from earlier work
# [2] = system: E5R (EcR-RXR fusion, 5 linker segments) (Drosophila melanogaster / Homo sapiens); experiment: EMSA; conditions: 1 uM muristerone A, 23 C
# [3] = system: E0U (EcR-Usp fusion, 0 linker segments) (Drosophila melanogaster); experiment: EMSA; conditions: nearly ligand-insensitive
# [4] = system: E0R (EcR-RXR fusion, 0 linker segments) (Drosophila melanogaster / Homo sapiens); experiment: EMSA; conditions: 1 uM muristerone A, 23 C
# [5] = system: R0E (RXR-EcR fusion, 0 linker segments) (Homo sapiens / Drosophila melanogaster); experiment: EMSA; conditions: 1 uM muristerone A, 23 C
# [6] = system: R5E (RXR-EcR fusion, 5 linker segments) (Homo sapiens / Drosophila melanogaster); experiment: EMSA; conditions: 1 uM muristerone A, 23 C
# [7] = system: U0E (Usp-EcR fusion, 0 linker segments) (Drosophila melanogaster); experiment: EMSA; conditions: barely detectable endodimer band; 1 uM muristerone A, 23 C
# [8] = system: E5U (EcR-Usp fusion, 5 linker segments) (Drosophila melanogaster); experiment: EMSA; conditions: nearly ligand-insensitive; not significantly above E0U
# [9] = molecular target: T1, Drosophila melanogaster ecdysone …; experiment: cell-based or functional assay
# [10] = system: EcRE probe; experiment: Gel mobility shift analysis of EcRE probe binding by FDs; conditions: 1 μM murA vs vehicle, extracts of transfected 293 cells
# Description: Preparation of the invention fusion protein FDs for gel shift analysis by transient transfection into 293 cells was as follows: 300 ng of individual receptor plasmids and 100 ng pCH110 internal control plasmid were cotransfected into 293 cells at 60% density in Costar 6-well plates. One well of each group was treated with 1 μM murA as ligand at the time of transfection. 40 hours later, extracts of transfected 293 cells were made by scraping the cells from a well into a low volume of phosphate buffered saline, pelleting the cells, resuspending them in 200 μl 5×gel shift buffer (Yao et al., supra 1992), and sonicating with a Kontes cell disrupter for three 10-sec. bursts at output level 30. The extracts were then centrifuged to clear the lysate and the protein was quantified. […]
# Comparative gel mobility shift analyses of FDs with control in vitro translated receptor complexes were performed using double stranded EcRE probes and labeled by Klenow fill using ^32P-dCTP and cold dGAT by standard methods. […] Band volumes were quantified using laser scanning densitometry.
# An autoradiogram of FDs and controls treated either with control vehicle or with 1 μM of murA as ligand was made with markers indicating endodimer FD or wild type receptor-binding complex band shifts. […] FIG. 2A is a graph that quantifies endodimer-sized band volumes obtained from the autoradiogram.
# [11] = system: E4-luc reporter plasmid in 293 cells; experiment: Transient transfection luciferase transactivation assay with E4-luc reporter; assay type: cell-based, human
# Description: For quantitative transactivation analysis, transfections were performed in triplicate in 24-well plates by calcium-phosphate co-precipitation with 100 ng of an individual receptor, the reporter plasmid E4-luc, and pCH110 (SV40-β-galactosidase) as an internal control. Briefly, the reporter plasmid, E4-luc, was constructed of 4-tandem EcREs inserted upstream of a thymidine kinase gene minimal promoter directing luciferase expression. […] 1 μM ligand was added at the time of transfection, and the cells were harvested for luciferase assay 40 hours later. Harvested cell extracts were split, and one part was analyzed in a luminometer for luciferase activity and the other part was analyzed for β-galactosidase activity using an orthonitrophenyl galactoside assay by standard methods. Luciferase levels were normalized to β-galactosidase values to correct for slight differences in transfection efficiency.
molecule,measurement,setting,value
"CCc1ccc(C(=O)NN(C(=O)c2cc(C)cc(C)c2)C(C)(C)C)cc1 [Tebufenozide, tebufenozide]",toxicity to mammals and other non-insect species,[1],very low toxicity
EcRE probe,binding signal (fold increase with ligand),[2],11
same,binding signal (fold vs UNE constructs (average of ENU)),[3],10
same,binding signal (fold increase with ligand),[4],7
same,binding signal (fold increase with ligand),[5],4
same,binding signal (fold increase with ligand),[6],5
same,binding signal (fold increase with ligand),[7],2
same,binding signal (fold vs UNE constructs (average of ENU)),[8],10
VP16-fused monomeric RXR (other) MDTKHFLPLDFSTQVNSSLTSPTGRGSMAAPSLHPSLGPGIGSPGQLHSPISTLSSPINGMGPPFSVISSPMGPHSMSVPTTPTLGFSTGSPQLSSPMNPVSSSEDIKPPLGLNGVLKVPAHPSGNMASFTKHICAICGDRSSGKHYGVYSCEGCKGFFKRTVRKDLTYTCRDNKDCLIDKRQRNRCQYCRYQKCLAMGMKREAVQEERQRGKDRNENEVESTSSANEDMPVERILEAELAVEPKTETYVEANMGLNPSSPNDPVTNICQAADKQLFTLVEWAKRIPHFSELPLDDQVILLRAGWNELLIASFSHRSIAVKDGILLATGLHVHRNSAHSAGVGAIFDRVLTELVSKMRDMQMDKTELGCLRAIVLFNPDSKGLSNPAEVEALREKVYASLEAYCKHKYPEQPGRFAKLLLRLPALRSIGLKCLEHLFFFKLIGDTPIDTFLMEMLEAPHQMT,E-mediated transactivation of the E4-luc luciferase reporter in 293 cells,[9],> 5 fold
"E5R: fusion protein: Drosophila EcR at amino terminus, 5 linker segments, RXR (protein) MKRRWSNNGGFMRLPEESSSEVTSSSNGLVLPSGVNMSPSSLDSHDYCDQDLWLCGNESGSFGGSNGHGLSQQQQSVITLAMHGCSSTLPAQTTIIPINGNANGNGGSTNGQYVPGATNLGALANGMLNGGFNGMQQQIQNGHGLINSTTPSTPTTPLHLQQNLGGAGGGGIGGMGILHHANGTPNGLIGVVGGGGGVGLGVGGGGVGGLGMQHTPRSDSVNSISSGRDDLSPSSSLNGYSANESCDAKKSKKGPAPRVQEELCLVCGDRASGYHYNALTCEGCKGFFRRSVTKSAVYCCKFGRACEMDMYMRRKCQECRLKKCLAVGMRPECVVPENQCAMKRREKKAQKEKDKMTTSPSSQHGGNGSLASGGGQDFVKKEILDLMTCEPPQHATIPLLPDEILAKCQARNIPSLTYNQLAVIYKLIWYQDGYEQPSEEDLRRIMSQPDENESQTDVSFRHITEITILTVQLIVEFAKGLPAFTKIPQEDQITLLKACSSEVMMLRMARRYDHSSDSIFFANNRSYTRDSYKMAGMADNIEDLLHFCRQMFSMKVDNVEYALLTAIVIFSDRPGLEKAQLVEAIQSYYIDTLRIYILNRHCGDSMSLVFYAKLLSILTELRTLGNQNAEMCFSLKLKNRKLPKFLEEIWDVHAIPPSVQSHLQITQEENERLERAERMRASVGGAITAGIDCDSASTSAAAAAAQHQPQPQPQPQPSSLTQNDSQHQTQPQLQPQLPPQLQGQLQPQLQPQLQTQLQPQIQPQPQLLPVSAPVPASVTAPGSLSAVSTSSEYMGGSAAIGPITPATTSSITAAVTASSTTSAVPMGNGVGVGVGVGGNVSMYANAQTAMALMGVALHSHQEQLIGGVAVKSEHSTTAGPTGPGPGGGSGGGSGTGPGGGSGGGSGTGPGGGSGGGSGTGPGGGSGGGSGTGPGGGSGGGSGTMDTKHFLPLDFSTQVNSSLTSPTGRGSMAAPSLHPSLGPGIGSPGQLHSPISTLSSPINGMGPPFSVISSPMGPHSMSVPTTPTLGFSTGSPQLSSPMNPVSSSEDIKPPLGLNGVLKVPAHPSGNMASFTKHICAICGDRSSGKHYGVYSCEGCKGFFKRTVRKDLTYTCRDNKDCLIDKRQRNRCQYCRYQKCLAMGMKREAVQEERQRGKDRNENEVESTSSANEDMPVERILEAELAVEPKTETYVEANMGLNPSSPNDPVTNICQAADKQLFTLVEWAKRIPHFSELPLDDQVILLRAGWNELLIASFSHRSIAVKDGILLATGLHVHRNSAHSAGVGAIFDRVLTELVSKMRDMQMDKTELGCLRAIVLFNPDSKGLSNPAEVEALREKVYASLEAYCKHKYPEQPGRFAKLLLRLPALRSIGLKCLEHLFFFKLIGDTPIDTFLMEMLEAPHQMT",relative-fold increase in response element binding (endodimer band) resulting from ligand treatment,[10],11 fold
same,Rel. Ind. = relative induction of individual receptor groups,[11]; +ligand (1 μM murA) versus −ligand,8.4 fold
same,+Lig/E4 = luciferase activity vs. reporter only with ligand,"[11]; transiently co-transfected 293 cells, 1 μM murA, relative to E4-luc reporter only",3.89
same,−Lig/E4 = luciferase activity vs. reporter only without ligand,"[11]; transiently co-transfected 293 cells, without ligand, relative to E4-luc reporter only",0.46
